B1: mRNA decay activator protein ZFP36 (Homo sapiens), P26651 (parent)
chain: MDLTAIYESLLSLSPDVPVPSDHGGTESSPGWGSSGPWSLSPSDSSPSGVTSRLPGRSTSLVEGRSCGWVPPPPGFAPLAPRLGPELSPSPTSPTATSTTPSRYKTELCRTFSESGRCRYGAKCQFAHGLGELRQANRHPKYKTELCHKFYLQGRCPYGSRCHFIHNPSEDLAAPGHPPVLRQSISFSGLPSGRRTSPPPPGLAGPSLSSSSFSPSSSPPPPGDLPLSPSAFSAAPGTPLARRDPTPVCCPSCRRATPISVWGPLGGLVRTPSVQSLGSDPDEYASSGSSLGGSDSPVFEAGVFAPPQPVAAPRRLPIFNRISVSE

Variants of: B1
Conditions: with CNOT1, A5YKK6-2
Chain of CNOT1, A5YKK6-2 (A5YKK6 other isoform, or with tags, fused parts or gaps): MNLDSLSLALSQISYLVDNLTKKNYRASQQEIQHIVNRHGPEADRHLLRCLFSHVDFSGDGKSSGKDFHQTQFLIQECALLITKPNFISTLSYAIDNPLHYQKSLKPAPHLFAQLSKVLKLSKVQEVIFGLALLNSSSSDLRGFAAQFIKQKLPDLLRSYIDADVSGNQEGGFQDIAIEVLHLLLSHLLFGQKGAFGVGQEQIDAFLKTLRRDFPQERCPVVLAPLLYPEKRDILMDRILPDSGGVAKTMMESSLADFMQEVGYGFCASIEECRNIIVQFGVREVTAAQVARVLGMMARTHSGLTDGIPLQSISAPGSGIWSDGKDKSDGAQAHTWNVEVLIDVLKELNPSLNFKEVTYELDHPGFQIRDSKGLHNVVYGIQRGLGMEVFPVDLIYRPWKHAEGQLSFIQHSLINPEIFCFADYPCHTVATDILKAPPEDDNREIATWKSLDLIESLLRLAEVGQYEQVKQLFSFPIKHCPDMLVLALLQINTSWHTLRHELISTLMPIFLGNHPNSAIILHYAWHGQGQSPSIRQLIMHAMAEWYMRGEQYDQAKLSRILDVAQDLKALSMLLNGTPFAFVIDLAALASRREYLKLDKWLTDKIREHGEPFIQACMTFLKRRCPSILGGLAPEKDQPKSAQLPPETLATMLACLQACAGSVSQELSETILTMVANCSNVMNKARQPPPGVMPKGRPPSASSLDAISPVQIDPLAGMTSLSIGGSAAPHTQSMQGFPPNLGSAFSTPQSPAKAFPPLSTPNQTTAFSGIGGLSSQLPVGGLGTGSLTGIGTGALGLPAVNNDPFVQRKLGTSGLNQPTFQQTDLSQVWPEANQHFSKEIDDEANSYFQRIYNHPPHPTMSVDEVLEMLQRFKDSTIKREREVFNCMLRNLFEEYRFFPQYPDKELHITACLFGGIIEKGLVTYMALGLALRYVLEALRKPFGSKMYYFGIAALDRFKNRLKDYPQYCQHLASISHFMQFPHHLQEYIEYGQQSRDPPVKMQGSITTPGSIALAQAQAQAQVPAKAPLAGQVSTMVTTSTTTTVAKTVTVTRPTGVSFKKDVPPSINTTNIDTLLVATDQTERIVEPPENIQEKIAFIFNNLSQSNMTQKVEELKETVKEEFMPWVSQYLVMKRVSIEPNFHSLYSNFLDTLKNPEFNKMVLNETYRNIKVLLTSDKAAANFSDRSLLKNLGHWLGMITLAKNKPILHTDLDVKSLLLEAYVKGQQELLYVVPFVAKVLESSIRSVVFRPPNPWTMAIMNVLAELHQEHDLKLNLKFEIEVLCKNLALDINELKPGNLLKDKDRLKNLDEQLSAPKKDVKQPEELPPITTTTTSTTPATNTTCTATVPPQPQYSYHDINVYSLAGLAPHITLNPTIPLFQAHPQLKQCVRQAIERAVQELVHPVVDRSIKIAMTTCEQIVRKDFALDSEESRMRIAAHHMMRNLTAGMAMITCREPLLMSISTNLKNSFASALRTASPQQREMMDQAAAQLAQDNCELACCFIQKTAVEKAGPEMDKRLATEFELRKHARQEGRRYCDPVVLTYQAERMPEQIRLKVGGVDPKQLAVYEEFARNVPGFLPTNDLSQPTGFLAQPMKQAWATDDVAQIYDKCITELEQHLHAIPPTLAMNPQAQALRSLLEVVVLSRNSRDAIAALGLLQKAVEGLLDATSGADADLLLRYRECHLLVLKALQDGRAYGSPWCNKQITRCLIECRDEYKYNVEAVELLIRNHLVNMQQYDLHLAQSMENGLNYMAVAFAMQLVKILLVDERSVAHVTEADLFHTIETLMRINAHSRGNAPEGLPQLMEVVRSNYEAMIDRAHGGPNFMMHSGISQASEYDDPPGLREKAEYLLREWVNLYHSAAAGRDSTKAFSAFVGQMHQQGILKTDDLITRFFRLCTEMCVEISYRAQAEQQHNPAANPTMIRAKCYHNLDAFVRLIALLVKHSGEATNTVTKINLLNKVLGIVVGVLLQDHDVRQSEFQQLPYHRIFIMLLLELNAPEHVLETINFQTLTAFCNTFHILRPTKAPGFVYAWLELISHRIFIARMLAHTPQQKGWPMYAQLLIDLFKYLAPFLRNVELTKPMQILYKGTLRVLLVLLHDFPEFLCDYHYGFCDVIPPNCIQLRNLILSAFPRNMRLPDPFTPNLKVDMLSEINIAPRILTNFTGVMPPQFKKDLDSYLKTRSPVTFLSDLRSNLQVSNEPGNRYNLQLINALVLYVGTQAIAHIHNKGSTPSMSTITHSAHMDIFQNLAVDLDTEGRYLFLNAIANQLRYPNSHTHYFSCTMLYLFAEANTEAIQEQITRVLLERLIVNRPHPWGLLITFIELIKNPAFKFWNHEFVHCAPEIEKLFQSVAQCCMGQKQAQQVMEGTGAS

effect of a mutation on the interaction	Variant
disrupting interaction strength	R315A

Variants of: B1
Conditions: with CNOT1, A5YKK6-2
Remark: another data set of the same source

effect of a mutation on the interaction	Variant
disrupting interaction strength	F319A
